Data as given in patent US20180037631A1 (Bristol-Myers Squibb, published 2018).
Residue numbers refer to the chain shown, from its start.

B1: E30 (designed binder)
10Fn3 domain: MGVSDVPRDLEVVAATPTSLLISWAIGTIVYQYYRITYGETGGNSPVQEFTVPAGVYTATISGLKPGVDYTITVYAVTDYYDWATHEYNYHTAPISINYRTEIDKPSQ
B2: E28 (designed binder)
10Fn3 domain: MGVSDVPRDLEVVAATPTSLLISWNPGSKSYQYYRITYGETGGNSPVQEFTVPGGVRTATISGLKPGVDYTITVYAVTDFYNPDTHEYLYNQYPISINYRTEIDKPSQ
B3: E29 (designed binder)
10Fn3 domain: MGVSDVPRDLEVVAATPTSLLISWQPGTTHYQYYRITYGETGGNSPVQEFTVPYDLMTATISGLKPGVDYTITVYAVTDYYNPNTYEYIYLTTPISINYRTEIDKPSQ
B4: E31 (designed binder)
10Fn3 domain: MGVSDVPRDLEVVAATPTSLLISWTYNDGSYQYYRITYGETGGNSPVQEFTVPYAVYTATISGLKPGVDYTITVYAVTDFYNPATYEYIYHTTPISINYRTEIDKPSQ
B5: E19 (designed binder)
10Fn3 domain: MGVSDVPRDLEVVAATPTSLLISWETESNAYQYYRITYGETGGNSPVQEFTVPGQIYTATISGLKPGVDYTITVYAVTDYKPHADGPHTYHESPISINYRTEIDKPSQ
B6: E18 (designed binder)
10Fn3 domain: B5 10Fn3 domain with E25F, T26V, E27T, S28H, N29V, Q55G, I56L, Y57S
B7: E20 (designed binder)
10Fn3 domain: MGVSDVPRDLEVVAATPTSLLISWMTSPSVYQYYRITYGETGGNSPVQEFTVPGPVQTATISGLKPGVDYTITVYAVTDYKEHQHAPHQYTAHPISINYRTEIDKPSQ
B8: E88 (designed binder)
10Fn3 domain: MGVSDVPRDLEVVAATPTSLLISWSATNKTYQYYRITYGETGGNSPVQEFTVPGGVRTATISGLKPGVDYTITVYAVTDYFNPTTHEYIYQTTPISINYRTEIDKPSQ
B9: E87 (designed binder)
10Fn3 domain: MGVSDVPRDLEVVAATPTSLLISWGSPLIEYQYYRITYGETGGNSPVQEFTVPGGLSTATISGLKPGVDYTITVYAVTDYFNPATHEYTYHVSPISINYRTEIDKPSQ
B10: E90 (designed binder)
10Fn3 domain: MGVSDVPRDLEVVAATPTSLLISWYWEGLPYQYYRITYGETGGNSPVQEFTVPRDVNTATISGLKPGVDYTITVYAVTDWYNPDTHEYIYHTIPISINYRTEIDKPSQ
B11: E89 (designed binder)
10Fn3 domain: MGVSDVPRDLEVVAATPTSLLISWDDPAANRQYYRITYGETGGNSPVQEFTVPYDLRTATISGLKPGVDYTITVYAVTDYYNPATHQYKYSQSPISINYRTEIDKPSQ
B12: E86 (designed binder)
10Fn3 domain: MGVSDVPRDLEVVAATPTSLLISWDSGENNYQYYRITYGETGGNSPVQEFTVPGGVRTATISGLKPGVDYTITVYAVTDYYNPKTHEYNYLTIPISINYRTEIDKPSQ
B13: E47 (designed binder)
10Fn3 domain: B2 10Fn3 domain with G27A, S30D, G55Q, R57P, D84A, L89K, N91D, Q92S, Y93T
B14: E58 (designed binder)
10Fn3 domain: MGVSDVPRDLEVVAATPTSLLISWSAVRWRYQYYRITYGETGGNSPVQEFTVPGGVRTATISGLKPGVDYTITVYAVTDFYNPRTHVYIYDQFPISINYRTEIDKPSQ
B15: E48 (designed binder)
10Fn3 domain: MGVSDVPRDLEVVAATPTSLLISWRSSATAYQYYRITYGETGGNSPVQEFTVPGRVYTATISGLKPGVDYTITVYAVTDFFNWATHEYIYHSTPISINYRTEIDKPSQ
B16: E50 (designed binder)
10Fn3 domain: MGVSDVPRDLEVVAATPTSLLISWTVGLSVYQYYRITYGETGGNSPVQEFTVPGMVSTATISGLKPSVDYTITVYAVTDYKPHADGPHTYHEYPISINYRTEIDKPSQ
B17: E51 (designed binder)
10Fn3 domain: MGVSDVPRDLEVVAATPTSLLISWGGHRAVYQYYRITYGETGGNSPVQEFTVPGAVYTATISGLKPGVDYTITVYAVTDYYNPDTHEYKYHQYPISINYRTEIDKPSQ
B18: E53 (designed binder)
10Fn3 domain: B17 10Fn3 domain with G25S, G26V, H27G, R28G, A29M, V30I, A55M, Y57T, D84A, Y93T
B19: E55 (designed binder)
10Fn3 domain: B17 10Fn3 domain with G25S, G26V, H27G, R28Q, A29V, V30F, G54Y, A55D, D84A, Y93T
B20: E57 (designed binder)
10Fn3 domain: B17 10Fn3 domain with G25I, G26V, H27Q, R28G, A29G, V30R, A55M, Y57T, D84S, Y93T
B21: E52 (designed binder)
10Fn3 domain: MGVSDVPRDLEVVSATPTSLLISWQVPRPMYQYYRITYGETGGNSPVQEFTVPGGVRTATISGLKPGVDYTITVYAVTDYWFKEYREDPISINYRTEIDKPSQ
B22: E49 (designed binder)
10Fn3 domain: MGVSDVPRDLEVVAATPTSLLISWHSGPREYQYYRITYGETGGNSPVQEFTVPGQVYTATISGLKPGVDYTITVYAVTDFFNPITHYYYYELTPISINYRTEIDKPSQ
B23: E54 (designed binder)
10Fn3 domain: MGVSDVPRDLEVVAATPTSLLISWKASYTGYNYYRITYGETGGNSPVQEFTVPRDVMTATISGLKPGVDYTITVYAVTDFYNPDTHQYTYRRIPISINYRTEIDKPSQ
B24: E56 (designed binder)
10Fn3 domain: MGVSDVPRDLEVVAATPTSLLISWYSGDYHYQYYRITYGETGGNSPVQEFTVPHDLETATISGLKPGVDYTITVYAVTDYYNPATHYYKYEQTPISINYRTEIDKPSQ
B25: E46 (designed binder)
10Fn3 domain: MGVSDVPRDLEVVAATPTSLLISWQVGSVVYQYYRITYGETGGNSPVQEFTVPRDVLTATISGLKPGVDYTITVYAVTDYKPKPDGPHIYQAVPISINYRTEIDKPSQ

molecular target: T1, EGFR on the surface of human tumour cells (A431, H292) (human, UniProt P00533 25-1210); test: cell-based or functional assay

% inhibition of EGFR phosphorylation at 100 nM binder, cell-based assay	Binder
87.3%	B1
85.3%	B2
87.9%	B3
75.8%	B4
84.6%	B5
91.1%	B6
80.2%	B7

molecular target: T1, EGFR on the surface of human tumour …; test: cell-based or functional assay; remark: another data set of the same source

% inhibition of EGFR phosphorylation at 100 nM binder, cell-based assay	Binder
89.3%	B8
87%	B9
81.3%	B10
82.6%	B11
84.7%	B12

molecular target: T1, EGFR on the surface of human tumour …; test: cell-based or functional assay; remark: another data set of the same source

% inhibition of EGFR phosphorylation at 100 nM binder, cell-based assay	Binder
76.9%	B13
79.7%	B14
88.6%	B15
77.4%	B16
82.8%	B17
79.8%	B18
99.1%	B19
75.5%	B20
75.3%	B21
83.5%	B22
76.1%	B23
84.2%	B24
77%	B25
